Data on two proteins can be found in publication PMC3948749, “Engineering of Pyranose Dehydrogenase for Increased Oxygen Reactivity” (PLoS ONE, 2014).

By Km is commonly meant the concentration of substrate that gives half-maximal velocity. The term kcat denotes the number of substrate molecules converted per active site and unit of time at saturation. For orientation: kcat/Km means the second-order rate constant that governs catalysis at low substrate concentration.

Substrate in this data set: O=C1C(Cl)=CC(=Nc2ccc(O)cc2)C=C1Cl
The data set is described as follows: steady-state kinetics, DCIP reduction. Format: biochemical, Macropsalliota meleagris. As to conditions: apparent, electron acceptor, 25 mM D-glucose as donor, pH 4, 30 °C. An excerpt:
steady-state kinetics, DCIP reduction on AmPDH (Agaricus meleagris pyranose dehydrogenase, pdh1)

B1: AmPDH (Agaricus meleagris pyranose dehydrogenase, pdh1) (Macropsalliota meleagris) (protein)
chain: AITYQHPDDLPSGVDYDFIVAGGGTAGLVVASRLSENSNWKVLVIEAGPSNKDAFVTRVPGLASTLGAGSPIDWNYTTIPQDGLDGRSLDYPRAKILGGCSTHNGMVYTRGSKDDWNSWAGIIGDQGLGWDSILPAIKKAEKFTQDFTDQSVKGHIDPSVHGFDGKLSVSAAYSNISFNDLLFETTKELNAEFPFKLDMNDGKPIGLGWTQYTIDNHAERSSSATSYLESTGDNVHVLVNTLVTRVLSASGNGTDFRKVEFAVDANSPKKQLEAKKEVIVAGGVIASPQILMNSGIGERKVLQAVGIDTLIDNPSVGKNLSDQGATSVMFDTTLPSTDFDVDAALTEWTNSHTGPLARGARLNHLTFVRLPDDKLNGQDPSSGKNSPHIEFQFAQITPQVPTLGVPKQAPLPAANSYRLLLQLAVVNLYSISRGSISLSDNNPFTYPLIDLNMFKEDIDIAILREGIRSAGRMFSSKAFKNSVNKFVYPPADATSDEDLDAFLRSSTFSYVHGVGTLSMSPKGASWGVVNPDFKVKGTSGLRVVDASVIPHAPAAHTQLPVYAFAEYASALIAKSYN
notes: monomeric glycoprotein about 90 kDa, 64 kDa deglycosylated
Consider B1, for which the Km amounted to 140 ± 10 µM, the kcat worked out at 40.7 ± 4.1 s⁻¹ and the kcat/Km is 291000 M⁻¹ s⁻¹.

B2: AmPDH (Agaricus meleagris pyranose dehydrogenase, pdh1) (Macropsalliota meleagris; H128Y) (protein)
chain: AITYQHPDDLPSGVDYDFIVAGGGTAGLVVASRLSENSNWKVLVIEAGPSNKDAFVTRVPGLASTLGAGSPIDWNYTTIPQDGLDGRSLDYPRAKILGGCSTYNGMVYTRGSKDDWNSWAGIIGDQGLGWDSILPAIKKAEKFTQDFTDQSVKGHIDPSVHGFDGKLSVSAAYSNISFNDLLFETTKELNAEFPFKLDMNDGKPIGLGWTQYTIDNHAERSSSATSYLESTGDNVHVLVNTLVTRVLSASGNGTDFRKVEFAVDANSPKKQLEAKKEVIVAGGVIASPQILMNSGIGERKVLQAVGIDTLIDNPSVGKNLSDQGATSVMFDTTLPSTDFDVDAALTEWTNSHTGPLARGARLNHLTFVRLPDDKLNGQDPSSGKNSPHIEFQFAQITPQVPTLGVPKQAPLPAANSYRLLLQLAVVNLYSISRGSISLSDNNPFTYPLIDLNMFKEDIDIAILREGIRSAGRMFSSKAFKNSVNKFVYPPADATSDEDLDAFLRSSTFSYVHGVGTLSMSPKGASWGVVNPDFKVKGTSGLRVVDASVIPHAPAAHTQLPVYAFAEYASALIAKSYN
notes: as for B1
On to B2, for which the Km came out at 20 ± 10 µM, the kcat stood at 2.8 ± 0.5 s⁻¹ and the kcat/Km amounted to 140000 M⁻¹ s⁻¹.
